Test results from patent publication US20110047631A1 (MEDICAL COLLEGE OF GEORGIA RESEARCH INSTITUTE, published 2011).

Biological target: T1, purified wild-type tau441 (UniProt P10636-8 1-441)
T1 construct: The 441-residue isoform, not the canonical UniProt entry length; Used at 2 uM; also called purified tau 441; purified tau
Experiment: purified wild-type tau441 and purified Hsp110 incubated together, immunoprecipitation, immunoblot
Method: As the data in FIG. 6 indicates, Hsp110 is present in tau immunocomplexes; however, it is not clear whether the interaction is direct or indirect. In order to determine whether Hsp110 interacts with tau directly, we incubated purified wild-type tau441 and Hsp110 and subjected them to immunoprecipitation analyses.

T1 sequence (P10636 other isoform, or with tags, fused parts or gaps limits assumed): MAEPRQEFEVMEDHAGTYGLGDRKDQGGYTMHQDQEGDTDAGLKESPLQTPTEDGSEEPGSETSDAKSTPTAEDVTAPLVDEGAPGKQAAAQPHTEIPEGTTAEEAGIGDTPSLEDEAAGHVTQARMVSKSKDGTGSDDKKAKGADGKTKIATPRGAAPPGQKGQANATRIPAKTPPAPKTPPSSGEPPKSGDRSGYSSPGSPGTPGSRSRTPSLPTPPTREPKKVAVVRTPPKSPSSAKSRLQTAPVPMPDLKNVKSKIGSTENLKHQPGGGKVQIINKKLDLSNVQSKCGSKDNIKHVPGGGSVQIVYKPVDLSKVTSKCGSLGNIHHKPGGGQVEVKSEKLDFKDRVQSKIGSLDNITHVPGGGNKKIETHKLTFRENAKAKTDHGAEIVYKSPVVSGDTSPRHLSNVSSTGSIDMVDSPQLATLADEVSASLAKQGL

binding result: binds
B1: purified full-length Hsp110 (human) (other, UniProt Q92598 2-858, looked up)
chain: SVVGLDVGSQSCYIAVARAGGIETIANEFSDRCTPSVISFGSKNRTIGVAAKNQQITHANNTVSNFKRFHGRAFNDPFIQKEKENLSYDLVPLKNGGVGIKVMYMGEEHLFSVEQITAMLLTKLKETAENSLKKPVTDCVISVPSFFTDAERRSVLDAAQIVGLNCLRLMNDMTAVALNYGIYKQDLPSLDEKPRIVVFVDMGHSAFQVSACAFNKGKLKVLGTAFDPFLGGKNFDEKLVEHFCAEFKTKYKLDAKSKIRALLRLYQECEKLKKLMSSNSTDLPLNIECFMNDKDVSGKMNRSQFEELCAELLQKIEVPLYSLLEQTHLKVEDVSAVEIVGGATRIPAVKERIAKFFGKDISTTLNADEAVARGCALQCAILSPAFKVREFSVTDAVPFPISLIWNHDSEDTEGVHEVFSRNHAAPFSKVLTFLRRGPFELEAFYSDPQGVPYPEAKIGRFVVQNVSAQKDGEKSRVKVKVRVNTHGIFTISTASMVEKVPTEENEMSSEADMECLNQRPPENPDTDKNVQQDNSEAGTQPQVQTDAQQTSQSPPSPELTSEENKIPDADKANEKKVDQPPEAKKPKIKVVNVELPIEANLVWQLGKDLLNMYIETEGKMIMQDKLEKERNDAKNAVEEYVYEFRDKLCGPYEKFICEQDHQNFLRLLTETEDWLYEEGEDQAKQAYVDKLEELMKIGTPVKVRFQEAEERPKMFEELGQRLQHYAKIAADFRNKDEKYNHIDESEMKKVEKSVNEVMEWMNNVMNAQAKKSLDQDPVVRAQEIKTKIKELNNTCEPVVTQPKPKIESPKLERTPNGPNIDKKEEDLEDKNNFGAEPPHQNGECYPNEKNSVNMDLD
notes: mature; used at 2 uM; also called purified Hsp110
